PMC4830470 (Nature, 2015)

Biological target: the molecule itself
Assay: SEC

B1: human class A J-protein DNAJA2 (JA2), wild type (natural protein)
chain: not shown
With B1 as the protein, how does the “stoichiometry N” value read?
The value was 2.
